# Legend:
# Details in all cases: 20 nM; 72 h
# [1] = system: MCF10A; assay: 5+ nucleoli phenotype percent effect (relative to siNT 0% and siKIF11 100%); higher = more cells with five or more nucleoli
# Procedure: (§1)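 After 72 h, cells were fixed and stained with Hoechst and anti-fibrillarin, and nucleoli per nucleus were counted with CellProfiler. Values are plate-adjusted percent effect for the one-nucleolus and 5+ nucleoli phenotypes, normalised to siNT (0%) and to the positive controls siNOL11 or siKIF11 (100%), as the mean of biological triplicates. Percent viability is the nuclei count relative to siNT.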
# [2] = system: MCF10A; assay: percent viability (nuclei count relative to siNT); higher = more viable cells
# Procedure: as §1
# [3] = system: MCF10A; assay: one-nucleolus phenotype percent effect (relative to siNT 0% and siNOL11 100%); higher = more cells with one nucleolus (ribosome biogenesis inhibition)
# Procedure: as §1
Sequence,5+ nucleoli phenotype percent effect [1],percent viability [2],one-nucleolus phenotype percent effect [3]
UUGGGGUUUGGGGUGCAGACAUUGC [hsa-miR-6855-5p],-2.12%,9.03%,34.4%
UUGGGUUUUCUCUUCAAUCCAG [hsa-miR-6839-3p],-18.2%,22.3%,14.2%
UUGGUGAGGACCCCAAGCUCGG [hsa-miR-7855-5p],-27.6%,7.91%,73.9%
UUGUACAUGGUAGGCUUUCAUU [hsa-miR-493-5p],-9.79%,81.7%,3.68%
UUGUCUCUUGUUCCUCACACAG [hsa-miR-6818-3p],16.4%,57.7%,-11.1%
UUGUCUGCUGAGUUUCC [hsa-miR-4288],-15.9%,31.9%,27.6%
UUGUGAAGAAAGAAAUUCUUA [hsa-miR-3611],-15.1%,53.1%,12.5%
UUGUGCUUGAUCUAACCAUGU [hsa-miR-218-5p],35.8%,151%,-8.63%
UUGUGGAUCUCAAGGAUGUGCU [hsa-miR-4752],-34.7%,31.5%,43.7%
UUGUGGCUGGUCAUGAGGCUAA [hsa-miR-4474-3p],22.3%,75.4%,3.27%
UUGUGGGGUUGGAGAGCUGGCUG [hsa-miR-6796-5p],-31.5%,17.2%,45.3%
UUGUGGGUGGGCAGAAGUCUGU [hsa-miR-6759-5p],-37.5%,21.7%,49.5%
UUGUGUCAAUAUGCGAUGAUGU [hsa-miR-592],-26.9%,69.9%,31.3%
UUGUGUGAGUACAGAGAGCAUC [hsa-miR-6818-5p],-31.6%,17.1%,66.1%
UUGUUCUCAAACUGGCUGUCAGA [hsa-miR-7156-5p],25.8%,46.2%,-16.5%
UUGUUCUUUGGUCUUUCAGCCA [hsa-miR-4677-5p],-26.7%,42.5%,20.3%
UUUAACAUGGGGGUACCUGCUG [hsa-miR-302c-5p],22.3%,121%,-8.1%
UUUAAGAAAACACCAUGGAGAU [hsa-miR-3658],18.1%,148%,-25.1%
UUUAAGCAGGAAAUAGAAUUUA [hsa-miR-4503],-5.17%,100%,-6.55%

Sequence,5+ nucleoli phenotype percent effect [1],percent viability [2],one-nucleolus phenotype percent effect [3]
UUUAGAGACGGGGUCUUGCUCU [hsa-miR-1303],17.6%,71.3%,-10.2%
UUUAGAUUGAACAUGAAGUUAG [hsa-miR-4760-5p],46.3%,83.5%,-20.8%
UUUAGGAUAAGCUUGACUUUUG [hsa-miR-651],33.3%,140%,-20.4%
UUUAGUGUGAUAAUGGCGUUUGA [hsa-miR-3591-5p],0.56%,39.6%,11.5%
UUUCAAGCCAGGGGGCGUUUUUC [hsa-miR-498],23.7%,61%,-7.63%
UUUCAGAUAACAGUAUUACAU [hsa-miR-3942-3p],-0.677%,58.8%,-15.3%
UUUCCAUAGGUGAUGAGUCAC [hsa-miR-587],39.4%,86.7%,-21.6%
UUUCCCUUCAGAGCCUGGCUUU [hsa-miR-4755-5p],1.53%,52.8%,3.84%
UUUCCCUUUCCAUCCUGGCAG [hsa-miR-5006-3p],18.5%,31.7%,4.84%
UUUCCGGCUCGCGUGGGUGUGU [hsa-miR-1180],-27.5%,31.8%,12.6%
UUUCCUACCCUACCUGAAGACU [hsa-miR-3685],-32.6%,36.6%,16.6%
UUUCCUCAUAUUCAUUCAGGA [hsa-miR-670-3p],-7.45%,46.6%,4.99%
UUUCCUGUCCUCCAACCAGACC [hsa-miR-7152-5p],-28.9%,26.5%,11.7%
UUUCUAUGUUAGUUGGAAG [hsa-miR-7159-3p],0.357%,26.4%,5.4%
UUUCUAUUUCUCAGUGGGGCUC [hsa-miR-4482-3p],0.737%,21.2%,31.6%
UUUCUCUCUCCACUUCCUCAG [hsa-miR-6833-3p],22.2%,28.4%,-1.79%
UUUCUGUCUUUUCUGGUCCAG [hsa-miR-4743-3p],-25.7%,17.7%,57.9%
UUUCUUCUUAGACAUGGCAACG [hsa-miR-4659a-3p],-14.6%,51.4%,-9.58%
UUUCUUCUUAGACAUGGCAGCU [hsa-miR-4659b-3p],-29.4%,31.6%,-5.32%

Sequence,5+ nucleoli phenotype percent effect [1],percent viability [2],one-nucleolus phenotype percent effect [3]
UUUGAGGCUACAGUGAGAUGUG [hsa-miR-1304-5p],15.4%,68.3%,0.012%
UUUGGACAGAAAACACGCAGGU [hsa-miR-4520b-3p],50%,87%,-21.6%
UUUGGCAAUGGUAGAACUCACACU [hsa-miR-182-5p],13.1%,22.8%,25%
UUUGGCACUAGCACAUUUUUGCU [hsa-miR-96-5p],16.6%,28.4%,19.4%
UUUGGGAUUGACGCCACAUGUCU [hsa-miR-6513-5p],91.1%,72.6%,-20.1%
UUUGGUCCCCUUCAACCAGCUA [hsa-miR-133b],-11.4%,52.5%,16.1%
UUUGGUCCCCUUCAACCAGCUG [hsa-miR-133a],-24.8%,34.5%,20.5%
UUUGUAUGGAUAUGUGUGUGUAU [hsa-miR-3149],-7.06%,37.6%,2.3%
UUUGUGACCUGGUCCACUAACC [hsa-miR-758-3p],-42%,52.5%,35.1%
UUUGUUCGUUCGGCUCGCGUGA [hsa-miR-375],5.82%,59.7%,0.601%
UUUUAAGGACACUGAGGGAUC [hsa-miR-7856-5p],57.8%,70.5%,-30.1%
UUUUCAACUCUAAUGGGAGAGA [hsa-miR-1305],-6.71%,72.2%,9.11%
UUUUGCAAUAUGUUCCUGAAUA [hsa-miR-450b-5p],14.4%,108%,-22.9%
UUUUGCACCUUUUGGAGUGAA [hsa-miR-507],-28%,42.2%,25.1%
UUUUGCAUGACCCUGGGAGUAGG [hsa-miR-3680-3p],-18.3%,51%,11.5%
UUUUGCGAUGUGUUCCUAAUAU [hsa-miR-450a-5p],13.7%,65.3%,3.94%
UUUUGUGUCUCCCAUUCCCCAG [hsa-miR-5010-3p],-18.5%,57.3%,-9.03%
UUUUUCAUUAUUGCUCCUGACC [hsa-miR-335-3p],26.8%,157%,-20.3%

# Reference: the supplement of paper PMC10899765
